The series deals with K4 kissing-loop RNA reporter. As to the kind of experiment: apparent KD of K4 kissing-loop reporter; higher = weaker reporter binding. Conditions: Eterna round: R107. How it is done: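 RNA-MaP round R107: designed RNA switches with theophylline, tryptophan, arginine or FMN aptamers are transcribed on-chip within common flanks. They are titrated with a labelled K4 kissing-loop RNA reporter in RNA-MaP buffer (100 mM Tris pH 7.5, 80 mM KCl, 4 mM MgCl2), without ligand or with the indicated ligand. Median apparent KD per design.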

Setting [1] is: input ligand: theophylline 20 uM.
The mark [2] stands for this setting: input ligand: tryptophan 2.4 mM.
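Further: bound reporter read as fluorescence of individual clusters on recovered sequencing chips by microscopy, with normalized cluster intensities fitted with a binding model.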

Take “AACCUACGAUCACAAUAGUGAUUGUAGGACUAGGAUAUGCUGAAAAGCAGAAGGAGUGAUGUUCCACUCAUGAAUAACAUGAGAA [FmnAX 4 #OpenEnded #K4Late #CoaxialStacking]”: the “apparent KD of K4 kissing-loop reporter” value by setting is: (input ligand: FMN 200 uM) 594 nM; (input ligand: arginine 13.2 mM) 340 nM; (input ligand: none) 410 nM; under setting [1], 324 nM; under setting [2], 270 nM.

Take “GUAGCACUUGAUAGUGAUGUUAUCAAGGGCAAGGAUAUCAUCUCAAUGAGAAGGUGUCCUUGAUAACUGCUACGGGAAUAUCCCA [Omei KL FMN A Exc D v6]”: the “apparent KD of K4 kissing-loop reporter” value (input ligand: FMN 200 uM) came to 444 nM; the “apparent KD of K4 kissing-loop reporter” value (input ligand: arginine 13.2 mM) came to 89 nM; the “apparent KD of K4 kissing-loop reporter” value (input ligand: none) came out at 96.8 nM; the “apparent KD of K4 kissing-loop reporter” value under setting [1] was determined as 86 nM; the “apparent KD of K4 kissing-loop reporter” value under setting [2] turned out to be 102 nM.

Take “UGUCAUUGGUCUGAUACCAGGUUGAUCGGUAAACGAUCUCCUGGAGUGAUGUUCCAAAAUAUCCCUUGGCAGCAGACCGAUGACU [TheoBS 6 #SwitchBubble #StaticStem]”: the “apparent KD of K4 kissing-loop reporter” value was determined as 571 nM (input ligand: FMN 200 uM); 320 nM (input ligand: arginine 13.2 mM); 545 nM (input ligand: none); 492 nM under setting [1]; 350 nM under setting [2].

“AUUACAUCUGAAAAGCUAGUGAUGUUAGCUCGAGGACCGGUACGGCCGCCACUCGCAUAGCGAGGCCAAGUCGCGGUUAACGGAG [theeternabot_exclusion_KL_Trp_A_4]”: the “apparent KD of K4 kissing-loop reporter” value was found to be 96.7 nM (input ligand: FMN 200 uM); 86.7 nM (input ligand: arginine 13.2 mM); 97.2 nM (input ligand: none); 89.1 nM under setting [1]; 83.3 nM under setting [2].

Regarding “GGGAGUAGUGCGGCCGCCACUGUGAAAGUAGAAGAAUAUAGUGAUGUUAUAUAGGAAUAAAAGAAUAGGACCGGGCAUUAGAUUU [SSTRyptB.V]”, the “apparent KD of K4 kissing-loop reporter” value worked out at 190 nM (input ligand: FMN 200 uM); 215 nM (input ligand: arginine 13.2 mM); 212 nM (input ligand: none); 249 nM under setting [1]; 168 nM under setting [2].

As to “GGAUAGGACGGAGGAUAUGGUAGUGAUGUUACCAAACUGGUUAAACAUGUCAGAAAACUGGCAUGACCAGAAGGCUGUCCUAUCG [FmnBX 27 G10]”, the “apparent KD of K4 kissing-loop reporter” value (input ligand: FMN 200 uM) stood at 112 nM; the “apparent KD of K4 kissing-loop reporter” value (input ligand: arginine 13.2 mM) is 65.2 nM; the “apparent KD of K4 kissing-loop reporter” value (input ligand: none) was determined as 73 nM; the “apparent KD of K4 kissing-loop reporter” value under setting [1] turned out to be 67.5 nM; the “apparent KD of K4 kissing-loop reporter” value under setting [2] amounted to 76.6 nM.

With “GCGCGUCAUGUCAGCGGUGACUCUGUCGAUACCAGCGCCGCAAGGCGCCCUUGGCAGCGACGCGCUGGAGUGAUGUUCCAGCGUG [#2 Exclusion - Theophylline A Attempt #13 (HarryS)]”, the “apparent KD of K4 kissing-loop reporter” value (input ligand: FMN 200 uM) came to 157 nM; the “apparent KD of K4 kissing-loop reporter” value (input ligand: arginine 13.2 mM) is 142 nM; the “apparent KD of K4 kissing-loop reporter” value (input ligand: none) is 160 nM; the “apparent KD of K4 kissing-loop reporter” value under setting [1] was 150 nM; the “apparent KD of K4 kissing-loop reporter” value under setting [2] is 145 nM.

Regarding “UUGGCUGGACGGGAUACCAGCCAAAUCGUGGGCUUGGGAUGUCUAAGAGCCAGUGAUGUUGGCCCUUGGCAGCCCUCCCAGCUUG [Xerirala]”, the “apparent KD of K4 kissing-loop reporter” value runs as follows: (input ligand: FMN 200 uM) 104 nM; (input ligand: arginine 13.2 mM) 97.7 nM; (input ligand: none) 95.9 nM; under setting [1], 75.5 nM; under setting [2], 113 nM.

Regarding “GCCUAGGCUCGAAAGAGCCUAGGCUUUACUCAGGAUAUCUGGAAACAGAGAAGGGAGCUACUAGUGAUGUUAGGAAUUCCCUAAG”, the “apparent KD of K4 kissing-loop reporter” value reads like this: (input ligand: FMN 200 uM) 45.9 nM; (input ligand: arginine 13.2 mM) 80.3 nM; (input ligand: none) 133 nM; under setting [1], 141 nM; under setting [2], 87.8 nM.

Take “CCUUUCUGUUACGAUACCAGUCUAAUAUAUUUGAUCAAUACCCUCGCCGAGUGAUGUUCGGACCCUUGGCAGCGUCUGGGACAGG [aazwmullin]”: the “apparent KD of K4 kissing-loop reporter” value runs as follows: (input ligand: FMN 200 uM) 482 nM; (input ligand: arginine 13.2 mM) 438 nM; (input ligand: none) 493 nM; under setting [1], 468 nM; under setting [2], 451 nM.

For the sequence “GCUAUGGUAGGAAGGAGCGCUUGCUCGGUCAUAUGAGUGAUGUUCGAGACCGAGCAUUUAUAGCAGGUAGGUCGCCUACUAUAGC [Arginine B K4 8]”, the “apparent KD of K4 kissing-loop reporter” value runs as follows: (input ligand: FMN 200 uM) 253 nM; (input ligand: arginine 13.2 mM) 223 nM; (input ligand: none) 192 nM; under setting [1], 200 nM; under setting [2], 198 nM.

In the case of “AAAAUAAACCAGUGAUGUUGGUGUCCAGAUACCAGCGAUAAAAUUCGCCCUUGGCAGCUGUGGACGUACAAAAUAAGUACGUCCU [MatMod 3 - Jieux - Same State - Theophylline A]”, the “apparent KD of K4 kissing-loop reporter” value (input ligand: FMN 200 uM) came to 734 nM; the “apparent KD of K4 kissing-loop reporter” value (input ligand: arginine 13.2 mM) worked out at 555 nM; the “apparent KD of K4 kissing-loop reporter” value (input ligand: none) turned out to be 837 nM; the “apparent KD of K4 kissing-loop reporter” value under setting [1] came to 525 nM; the “apparent KD of K4 kissing-loop reporter” value under setting [2] was 674 nM.

Consider “AUGGGUCCACGAAGGAGCGCCGUGCAGUGAUGUUGCAGUUAGAUCCAGUGAUGUUUGGGCCGGCAGGUAGGUCGCGUGGAUUUAU [Exclusion Arginine B GF 22]”, for which the “apparent KD of K4 kissing-loop reporter” value amounted to 249 nM (input ligand: FMN 200 uM); 199 nM (input ligand: arginine 13.2 mM); 249 nM (input ligand: none); 243 nM under setting [1]; 222 nM under setting [2].

For “AGAACUGUCUGAGAUACCAGCCAGGAAGUGAUGUUUCCAGCUCCACGAAAGUGGAGCCAUGGCCCUUGGCAGCUCAGACAGUUCA [Omei KL Theo B SS A v5]”, the “apparent KD of K4 kissing-loop reporter” value is 150 nM (input ligand: FMN 200 uM); 141 nM (input ligand: arginine 13.2 mM); 147 nM (input ligand: none); 105 nM under setting [1]; 154 nM under setting [2].

“UCUCAUCUCAGAAGGAGCGUGAGAGAAUAUUAGAAAUCGUCGAGUGAUGUUCGACGUCUCUCACAGGUAGGUCGCUGAGACGUCA [Arg B SS t9]”: the “apparent KD of K4 kissing-loop reporter” value runs as follows: (input ligand: FMN 200 uM) 111 nM; (input ligand: arginine 13.2 mM) 107 nM; (input ligand: none) 97.4 nM; under setting [1], 121 nM; under setting [2], 111 nM.

In the case of “UCUUUUGGCAUGGAUAGAAUGCCGACCGAUACCAGCAAAGUAGGAUGCCCUUGGCAGCGGAGUGAUGUUCCAUUGUCGCGGUUUG [theeternabot_exclusion_KL_Theo_A_48]”, the “apparent KD of K4 kissing-loop reporter” value came out at 82.7 nM (input ligand: FMN 200 uM); 91.3 nM (input ligand: arginine 13.2 mM); 86.9 nM (input ligand: none); 84.4 nM under setting [1]; 76.9 nM under setting [2].

The record behind these values is the supplement of paper PMC9170038.
